{"source": "paper PMC11995805", "about": "(BBA Advances, 2025)", "binders": {"B1": {"name": "His-tagged peptide of the carboxy terminus of claudin-11, NH2-…-COOH (peptide)", "peptide": "{H2N-Met-H2N-H2N-H2N-H2N-H2N-H2N}-PTHAKSAHV-OH", "SMILES": "CSCC[C@H](N)C(=O)N1CCC[C@H]1C(=O)N[C@H](C(=O)N[C@@H](Cc1c[nH]cn1)C(=O)N[C@@H](C)C(=O)N[C@@H](CCCCN)C(=O)N[C@@H](CO)C(=O)N[C@@H](C)C(=O)N[C@@H](Cc1c[nH]cn1)C(=O)N[C@H](C(=O)O)C(C)C)[C@@H](C)O"}}, "target": "T1, Recombinant FLAG-tagged shroom-2 PDZ domain (1st-110th amino acid) (human, UniProt Q13796 1-110)", "T1 sequence (looked up)": "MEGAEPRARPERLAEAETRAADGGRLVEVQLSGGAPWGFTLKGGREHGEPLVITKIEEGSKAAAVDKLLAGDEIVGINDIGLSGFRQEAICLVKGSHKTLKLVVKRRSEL", "assay": "co-IP"}
{"binder": "B1", "values": [{"measurement": "Kd", "result": 3.36, "unit": "µM"}]}
